Values quoted from earlier work as cited in PMC10539808.

Molecular target: Lys66 (UniProt position 148, FTKKMKENAKK)
Settings: not stated (quoted literature value; no ligand mentioned)

Substance: Staphylococcal nuclease (SNase), Delta+PHS/V66K variant (Staphylococcus aureus; P117G;H124L;S128A;del44-49;G50F;V51N;V66K)
- pKa: 5.7 and ∼ 5.6
